Non-standard residues stand in square brackets, D forms with d. No end group written: not given here. *: point of attachment. DOTA = O=C(O)CN1CCN(CC(=O)O)CCN(CC(=O)*)CCN(CC(=O)O)CC1; βAla = NCCC(=O)O
Tests used:
Plectin-1 [1] = biological target: T1, Plectin-1 (Homo sapiens, UniProt Q15149); test: Affinity of tetrameric versus monomeric plectin-1 targeted peptide; format: binding; parameters: L3.6 cells were plated on a 96 well plate and incubated with 111In-tPTP and increasing log concentrations of tPTP or scrambled tetramer; endogenous in cells; host or cells: L3.6 pancreatic cancer cells
[2] = test system: tumors from orthotopically implanted L3.6 cells; test: SPECT/CT in vivo imaging of orthotopic PDAC; settings: labeled peptide
Protocol: Anesthesia (1%-2% isoflurane in oxygen) was delivered throughout the imaging. CT acquisition used 200 evenly spaced projections spanning 200 degrees over approximately 5 minutes. Mice are repositioned axially for pinhole SPECT scanning 60 evenly spaced projection views were obtained over 180 degrees using two gamma cameras simultaneously. The acquisition time was approximately 30 minutes. The two cameras were fitted with 1 mm diameter tungsten pinholes. […] The reconstructed SPECT voxel size was 0.65×0.65×0.65 mm on a 60×60×60 image matrix. All SPECT images were corrected for radioactivity decay but not for gamma ray attenuation.

Plectin-1 [3] = biological target: T1, Plectin-1; test: In vitro competition assay: 111In-tPTP versus unlabeled tPTP or ncPTP on L3.6 cells; format: binding; parameters: L3.6 cells were plated on a 96 well plate and incubated with 111In-tPTP and increasing log concentrations of tPTP or scrambled tetramer; endogenous in cells; host or cells: L3.6 pancreatic cancer cells; settings: competition with 111In-labeled tPTP, 1 hr room temperature, read-out: Ki (inhibition dissociation constant)
Plectin-1 [4] = biological target: T1, Plectin-1; test: competition with 111In-tPTP on L3.6 cells, gamma counting

T1 sequence (Q15149 whole entry): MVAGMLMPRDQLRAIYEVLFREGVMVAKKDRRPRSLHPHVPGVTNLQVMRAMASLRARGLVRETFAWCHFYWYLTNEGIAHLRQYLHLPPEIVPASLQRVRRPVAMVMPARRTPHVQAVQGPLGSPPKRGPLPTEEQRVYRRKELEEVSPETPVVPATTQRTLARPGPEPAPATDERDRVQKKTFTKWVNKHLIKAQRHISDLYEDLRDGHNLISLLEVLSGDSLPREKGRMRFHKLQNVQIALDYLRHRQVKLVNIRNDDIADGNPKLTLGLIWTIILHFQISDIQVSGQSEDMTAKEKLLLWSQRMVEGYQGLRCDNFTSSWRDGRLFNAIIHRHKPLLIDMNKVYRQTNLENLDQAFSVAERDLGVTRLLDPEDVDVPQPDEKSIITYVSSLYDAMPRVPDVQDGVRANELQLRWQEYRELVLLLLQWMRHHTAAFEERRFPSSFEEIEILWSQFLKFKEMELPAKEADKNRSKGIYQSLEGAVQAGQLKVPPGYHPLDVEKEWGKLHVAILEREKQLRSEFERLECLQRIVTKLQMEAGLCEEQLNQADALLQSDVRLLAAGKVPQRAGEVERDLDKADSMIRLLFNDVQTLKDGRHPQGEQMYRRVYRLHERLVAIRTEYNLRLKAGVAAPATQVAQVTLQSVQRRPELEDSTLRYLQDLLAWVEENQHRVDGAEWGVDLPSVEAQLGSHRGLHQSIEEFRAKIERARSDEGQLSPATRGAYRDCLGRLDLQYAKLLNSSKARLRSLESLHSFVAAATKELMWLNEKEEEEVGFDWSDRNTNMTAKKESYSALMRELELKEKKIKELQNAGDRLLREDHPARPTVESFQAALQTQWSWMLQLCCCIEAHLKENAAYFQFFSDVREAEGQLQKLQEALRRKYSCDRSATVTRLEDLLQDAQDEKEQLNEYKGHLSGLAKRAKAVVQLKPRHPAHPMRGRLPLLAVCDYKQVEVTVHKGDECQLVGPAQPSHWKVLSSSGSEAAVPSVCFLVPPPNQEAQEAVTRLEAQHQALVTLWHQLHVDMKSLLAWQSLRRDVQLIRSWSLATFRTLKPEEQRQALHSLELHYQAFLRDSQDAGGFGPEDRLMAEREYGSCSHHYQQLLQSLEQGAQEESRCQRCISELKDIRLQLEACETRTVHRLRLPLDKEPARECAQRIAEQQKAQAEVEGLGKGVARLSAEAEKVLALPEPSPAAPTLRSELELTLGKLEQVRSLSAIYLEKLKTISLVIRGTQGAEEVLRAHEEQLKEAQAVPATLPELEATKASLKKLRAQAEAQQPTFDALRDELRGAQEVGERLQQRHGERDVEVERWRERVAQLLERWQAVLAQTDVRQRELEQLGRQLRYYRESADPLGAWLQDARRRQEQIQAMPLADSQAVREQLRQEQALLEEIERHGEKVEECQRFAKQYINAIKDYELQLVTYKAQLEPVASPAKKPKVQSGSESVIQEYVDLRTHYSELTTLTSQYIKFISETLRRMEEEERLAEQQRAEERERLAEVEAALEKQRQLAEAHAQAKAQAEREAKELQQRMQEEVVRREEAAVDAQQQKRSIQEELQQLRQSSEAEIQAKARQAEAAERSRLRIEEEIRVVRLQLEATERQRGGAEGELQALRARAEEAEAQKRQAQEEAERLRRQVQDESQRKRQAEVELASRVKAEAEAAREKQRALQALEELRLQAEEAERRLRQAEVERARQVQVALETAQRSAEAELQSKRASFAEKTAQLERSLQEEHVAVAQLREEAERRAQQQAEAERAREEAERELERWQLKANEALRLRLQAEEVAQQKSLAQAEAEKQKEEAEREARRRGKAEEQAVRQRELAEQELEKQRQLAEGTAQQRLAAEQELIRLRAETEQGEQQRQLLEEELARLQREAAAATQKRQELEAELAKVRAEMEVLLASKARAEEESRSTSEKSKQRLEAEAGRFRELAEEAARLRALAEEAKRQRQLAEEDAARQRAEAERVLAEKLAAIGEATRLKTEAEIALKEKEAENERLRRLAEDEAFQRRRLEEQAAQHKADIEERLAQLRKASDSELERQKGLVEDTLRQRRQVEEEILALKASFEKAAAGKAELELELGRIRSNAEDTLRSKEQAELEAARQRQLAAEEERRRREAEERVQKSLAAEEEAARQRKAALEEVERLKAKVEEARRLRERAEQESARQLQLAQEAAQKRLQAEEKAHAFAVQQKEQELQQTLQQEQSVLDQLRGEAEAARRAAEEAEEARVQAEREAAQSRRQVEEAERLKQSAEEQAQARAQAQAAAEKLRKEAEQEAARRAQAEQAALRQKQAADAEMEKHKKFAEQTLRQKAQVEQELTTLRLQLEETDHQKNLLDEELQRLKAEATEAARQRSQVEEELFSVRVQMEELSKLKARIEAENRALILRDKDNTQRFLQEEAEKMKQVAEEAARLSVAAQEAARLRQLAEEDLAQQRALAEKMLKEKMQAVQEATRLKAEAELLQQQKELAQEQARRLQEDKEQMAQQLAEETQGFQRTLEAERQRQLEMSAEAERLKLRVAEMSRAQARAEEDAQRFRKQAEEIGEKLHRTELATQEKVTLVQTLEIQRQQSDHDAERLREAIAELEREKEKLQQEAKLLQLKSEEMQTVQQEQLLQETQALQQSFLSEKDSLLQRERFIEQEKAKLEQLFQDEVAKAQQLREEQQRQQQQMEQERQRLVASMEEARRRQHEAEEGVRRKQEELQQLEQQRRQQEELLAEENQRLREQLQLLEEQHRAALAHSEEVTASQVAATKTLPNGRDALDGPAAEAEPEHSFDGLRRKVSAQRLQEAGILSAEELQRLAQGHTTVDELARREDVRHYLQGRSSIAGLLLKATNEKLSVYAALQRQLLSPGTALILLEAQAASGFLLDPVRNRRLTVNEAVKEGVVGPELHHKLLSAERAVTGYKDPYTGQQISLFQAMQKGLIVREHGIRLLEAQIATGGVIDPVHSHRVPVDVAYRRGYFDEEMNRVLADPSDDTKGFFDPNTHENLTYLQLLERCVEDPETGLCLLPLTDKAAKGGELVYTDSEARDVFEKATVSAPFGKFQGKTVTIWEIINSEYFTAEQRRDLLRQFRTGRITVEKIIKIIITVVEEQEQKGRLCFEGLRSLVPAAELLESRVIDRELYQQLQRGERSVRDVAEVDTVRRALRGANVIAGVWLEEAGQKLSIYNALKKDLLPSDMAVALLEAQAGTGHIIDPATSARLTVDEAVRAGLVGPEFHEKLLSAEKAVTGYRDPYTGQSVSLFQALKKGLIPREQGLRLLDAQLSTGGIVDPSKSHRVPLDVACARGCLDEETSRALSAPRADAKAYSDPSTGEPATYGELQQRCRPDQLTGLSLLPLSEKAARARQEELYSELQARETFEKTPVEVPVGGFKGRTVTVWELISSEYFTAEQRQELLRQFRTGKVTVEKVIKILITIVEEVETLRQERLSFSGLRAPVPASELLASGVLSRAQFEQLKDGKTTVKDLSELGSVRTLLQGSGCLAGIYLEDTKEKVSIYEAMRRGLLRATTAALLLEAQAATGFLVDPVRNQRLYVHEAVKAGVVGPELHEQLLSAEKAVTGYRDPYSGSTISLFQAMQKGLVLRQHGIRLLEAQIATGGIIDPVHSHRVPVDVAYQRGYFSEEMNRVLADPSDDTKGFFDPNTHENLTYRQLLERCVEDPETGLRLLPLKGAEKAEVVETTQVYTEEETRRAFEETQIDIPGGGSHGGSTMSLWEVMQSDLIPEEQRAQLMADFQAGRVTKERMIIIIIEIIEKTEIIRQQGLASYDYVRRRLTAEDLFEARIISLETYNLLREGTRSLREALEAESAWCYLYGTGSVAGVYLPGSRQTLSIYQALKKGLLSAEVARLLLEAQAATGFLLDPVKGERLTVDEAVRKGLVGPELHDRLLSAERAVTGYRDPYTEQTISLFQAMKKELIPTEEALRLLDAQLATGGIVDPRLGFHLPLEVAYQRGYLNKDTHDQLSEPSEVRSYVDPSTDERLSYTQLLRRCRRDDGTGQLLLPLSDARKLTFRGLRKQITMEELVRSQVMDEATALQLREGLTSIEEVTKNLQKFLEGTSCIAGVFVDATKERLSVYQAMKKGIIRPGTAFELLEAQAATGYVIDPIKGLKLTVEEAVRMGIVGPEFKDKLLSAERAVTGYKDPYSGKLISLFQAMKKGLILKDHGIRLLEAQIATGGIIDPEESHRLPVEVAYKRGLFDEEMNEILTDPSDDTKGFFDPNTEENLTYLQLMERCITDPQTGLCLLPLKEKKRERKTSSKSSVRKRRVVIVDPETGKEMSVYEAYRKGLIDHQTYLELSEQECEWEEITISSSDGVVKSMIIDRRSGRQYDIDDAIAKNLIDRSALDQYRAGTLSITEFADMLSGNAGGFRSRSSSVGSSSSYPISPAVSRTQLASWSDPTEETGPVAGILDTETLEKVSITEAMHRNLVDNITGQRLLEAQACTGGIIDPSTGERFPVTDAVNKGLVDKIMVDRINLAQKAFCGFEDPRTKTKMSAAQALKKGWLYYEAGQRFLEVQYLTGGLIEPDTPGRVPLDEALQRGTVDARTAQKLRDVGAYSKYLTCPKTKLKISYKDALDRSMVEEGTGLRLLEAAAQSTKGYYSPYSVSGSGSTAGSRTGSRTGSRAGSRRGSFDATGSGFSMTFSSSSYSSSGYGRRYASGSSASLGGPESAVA

## KTLLPTP [monomeric peptide]
Plectin-1 [1]
  affinity: 160 nmol
[2]
  time before visualization: 48 h

## ncPTP-4(βAKHVMSKQGGS (PEG5000))KKKDOTAβA-NH2 (peptide [βAla]KHVMSKQGGS; chain Lys-Lys-Lys(DOTA)-{βAla-NH2}; not fully specified (some residues, C-terminus); also: tetramer: four chain-1 arms on lysine core, each arm's Ser joined via PEG5000 to the lysine core)
Plectin-1 [3]
  Ki: 2860 nM

B1: ncPTP-4(β… (PEG5000))KKKDOTAβA-NH2 (peptide)
peptide: [βAla]KHVMSKQGGS-PEG5000
chain: Lys-Lys-Lys
modifications: not fully specified (some residues, C-terminus); also: tetramer: four arms joined via PEG5000 to lysine core, attachment lysines not given here
Plectin-1 [4]
  Ki: 2860 nM

B2: tetrameric plectin-1 targeted peptide (tPTP) complex, (β…(PEG5000))4 KKKKDOTAβA-NH2 (peptide)
peptide: [βAla]KTLLPTPGGS-PEG5000
chain: KKKK(DOTA)-{βAla-NH2}
modifications: not fully specified (some residues); also: branched core [(arm)2-Lys]2-Lys-Lys(DOTA): four arms, C-terminal Ser of each joined through PEG5000 to an amino group of the core
Plectin-1 [4]
  Ki: 830 nM

Reference: patent US9075059B2, “Compositions and methods for detecting plectin-1 as a biomarker for cancer” (University of Virginia Patent Foundation, priority 2009, dated 2015)
